Reference: US20240209065A1 (SINGLOMICS BEIJING DANXU BIOPHARMACEUTICALS, published 2024)

Legend:
Assay in all cases: cell-based or functional assay
[1] = biological target: S protein of authentic SARS-CoV-2 Omicron BA.2 virus (SARS-CoV-2, UniProt P0DTC2 14-1273)
[2] = biological target: S protein of authentic SARS-CoV-2 Omicron BA.1 virus (SARS-CoV-2, UniProt P0DTC2 14-1273)
[3] = biological target: S protein of authentic SARS-CoV-2 Omicron BA.5 virus (SARS-CoV-2, UniProt P0DTC2 14-1273)
[4] = biological target: S protein (SΔ19) of Omicron BQ.1 pseudovirus (SARS-CoV-2, UniProt P0DTC2 14-1254)
[5] = biological target: S protein (SΔ19) of Omicron BQ.1.1 pseudovirus (SARS-CoV-2, UniProt P0DTC2 14-1254)

Row | Binder | IC50, microneutralization assay with authentic virus [1] [nM] | fold increase of neutralization activity over parental IgG, authentic virus [1] [fold] | IC50, microneutralization assay with authentic virus [2] [nM] | fold increase of neutralization activity over parental IgG, authentic virus [2] [fold] | IC50, microneutralization assay with authentic virus [3] [nM] | fold increase of neutralization activity over parental IgG, authentic virus [3] [fold] | IC50, pseudovirus assay (HIV platform) [4] [nM] | fold increase of neutralizing activity compared to IgG, pseudovirus [4] [fold] | IC50, pseudovirus assay (HIV platform) [5] [nM] | fold increase of neutralizing activity compared to IgG, pseudovirus [5] [fold] | fold more potent in neutralizing than IgG, authentic virus [3] [fold]
1 | DXP-604 monomeric IgA1 (antibody) heavy: not shown light: DIQLTQSPSFLSASVGDRVTITCRASQGISSDLAWYQQKPGKAPNLLIYAASTLQSGVPSRFSGSGSGTEFTLTISSLQPEDFATYYCQQLNSDLYTFGQGTKLEIKRTVAAPSVFIFPPSDEQLKSGTASVVCLLNNFYPREAKVQWKVDNALQSGNSQESVTEQDSKDSTYSLSSTLTLSKADYEKHKVYACEVTHQGLSSPVTKSFNRGEC | 0.16 | 17 | 3.43 | 6.7 | 0.35 | 35.5 |  |  |  |  | 
2 | DXP-604 secretory IgA1 (antibody) heavy: not shown light: DIQLTQSPSFLSASVGDRVTITCRASQGISSDLAWYQQKPGKAPNLLIYAASTLQSGVPSRFSGSGSGTEFTLTISSLQPEDFATYYCQQLNSDLYTFGQGTKLEIKRTVAAPSVFIFPPSDEQLKSGTASVVCLLNNFYPREAKVQWKVDNALQSGNSQESVTEQDSKDSTYSLSSTLTLSKADYEKHKVYACEVTHQGLSSPVTKSFNRGEC chain 1: not shown chain 2: not shown | 0.03 |  | 0.44 |  | 0.09 |  | 1.41 | 6 | 1.59 | 5.5 | 
3 | DXP-604 dimeric IgA1 (antibody) heavy: not shown light: DIQLTQSPSFLSASVGDRVTITCRASQGISSDLAWYQQKPGKAPNLLIYAASTLQSGVPSRFSGSGSGTEFTLTISSLQPEDFATYYCQQLNSDLYTFGQGTKLEIKRTVAAPSVFIFPPSDEQLKSGTASVVCLLNNFYPREAKVQWKVDNALQSGNSQESVTEQDSKDSTYSLSSTLTLSKADYEKHKVYACEVTHQGLSSPVTKSFNRGEC not shown | 0.06 |  | 0.38 |  | 0.13 |  | 3.2 | 2.6 | 4.88 | 1.8 | 92
